Measurements as given in US20130184160.

Legend:
Assay in all cases: filter
[1] = molecular target: Alpha-1 acid glycoprotein (UniProt P02763); details: T positions from B-TTP (quinoline-8-boronic acid linked at 5-position of dU via triazole), outside primer; specificity control
[2] = molecular target: T1, Fetuin (UniProt P12763); details: T positions from B-TTP (quinoline-8-boronic acid linked at 5-position of dU via triazole), outside primer; specificity control
T1 sequence: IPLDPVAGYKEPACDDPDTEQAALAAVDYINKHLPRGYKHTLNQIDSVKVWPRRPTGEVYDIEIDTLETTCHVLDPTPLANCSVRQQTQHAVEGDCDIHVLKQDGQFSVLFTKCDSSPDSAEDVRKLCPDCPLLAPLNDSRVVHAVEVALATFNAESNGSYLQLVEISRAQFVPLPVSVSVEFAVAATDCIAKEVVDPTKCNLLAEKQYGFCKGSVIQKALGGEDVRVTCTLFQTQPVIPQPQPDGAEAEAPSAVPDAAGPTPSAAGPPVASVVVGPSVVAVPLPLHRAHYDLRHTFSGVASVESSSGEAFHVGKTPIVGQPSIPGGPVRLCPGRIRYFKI

[3] = system: Fibrinogen (glycosylated, untreated), P02671-2+P02675+P02679; details: T positions from B-TTP; average Kd of pool after round 13
Sequence of Fibrinogen (glycosylated, untreated), P02671-2+P02675+P02679 (P02671 other isoform, or with tags, fused parts or gaps, chain 1 of 3): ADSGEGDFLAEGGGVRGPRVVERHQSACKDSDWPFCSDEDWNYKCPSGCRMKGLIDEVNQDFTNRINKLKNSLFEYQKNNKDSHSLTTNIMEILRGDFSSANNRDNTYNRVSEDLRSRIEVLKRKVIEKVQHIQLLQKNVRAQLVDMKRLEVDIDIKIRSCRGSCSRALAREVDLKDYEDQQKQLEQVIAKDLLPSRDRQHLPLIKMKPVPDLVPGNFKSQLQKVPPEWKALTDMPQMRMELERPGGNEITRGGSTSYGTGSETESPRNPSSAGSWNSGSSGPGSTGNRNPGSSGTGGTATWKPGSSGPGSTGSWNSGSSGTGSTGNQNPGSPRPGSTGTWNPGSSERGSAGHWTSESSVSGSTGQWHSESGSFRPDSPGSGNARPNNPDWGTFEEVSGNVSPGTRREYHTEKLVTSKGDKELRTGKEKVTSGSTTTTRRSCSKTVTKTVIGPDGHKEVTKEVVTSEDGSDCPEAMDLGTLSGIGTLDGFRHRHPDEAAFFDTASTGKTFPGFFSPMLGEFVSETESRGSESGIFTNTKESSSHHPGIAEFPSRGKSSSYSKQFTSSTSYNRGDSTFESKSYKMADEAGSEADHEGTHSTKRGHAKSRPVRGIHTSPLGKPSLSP
Sequence of Fibrinogen (glycosylated, untreated), P02671-2+P02675+P02679 (P02675 31-491, chain 2 of 3): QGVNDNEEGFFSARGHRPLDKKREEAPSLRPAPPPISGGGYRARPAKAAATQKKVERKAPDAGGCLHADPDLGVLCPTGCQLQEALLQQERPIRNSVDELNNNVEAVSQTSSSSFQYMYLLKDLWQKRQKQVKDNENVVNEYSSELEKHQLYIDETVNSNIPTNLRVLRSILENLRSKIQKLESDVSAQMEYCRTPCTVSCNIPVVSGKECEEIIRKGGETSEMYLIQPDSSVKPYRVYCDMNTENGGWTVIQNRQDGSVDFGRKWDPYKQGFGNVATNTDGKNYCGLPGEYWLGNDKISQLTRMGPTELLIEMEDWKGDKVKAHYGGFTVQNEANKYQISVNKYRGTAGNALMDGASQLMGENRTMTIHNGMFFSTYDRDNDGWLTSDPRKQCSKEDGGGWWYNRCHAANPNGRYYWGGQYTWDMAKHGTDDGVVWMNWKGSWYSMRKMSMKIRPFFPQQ
Sequence of Fibrinogen (glycosylated, untreated), P02671-2+P02675+P02679 (P02679 27-453, chain 3 of 3): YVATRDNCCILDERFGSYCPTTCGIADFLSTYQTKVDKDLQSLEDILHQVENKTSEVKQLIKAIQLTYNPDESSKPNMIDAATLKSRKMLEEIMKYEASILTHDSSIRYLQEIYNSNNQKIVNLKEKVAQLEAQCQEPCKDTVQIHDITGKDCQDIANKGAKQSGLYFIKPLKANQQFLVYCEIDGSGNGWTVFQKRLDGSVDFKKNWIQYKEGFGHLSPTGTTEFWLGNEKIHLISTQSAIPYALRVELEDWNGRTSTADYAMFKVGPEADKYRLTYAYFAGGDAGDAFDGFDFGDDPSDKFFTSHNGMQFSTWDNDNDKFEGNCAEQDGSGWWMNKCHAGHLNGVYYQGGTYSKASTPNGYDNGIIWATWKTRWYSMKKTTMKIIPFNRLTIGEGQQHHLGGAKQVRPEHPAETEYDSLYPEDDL

Sequence of Alpha-1 acid glycoprotein (P02763 19-201): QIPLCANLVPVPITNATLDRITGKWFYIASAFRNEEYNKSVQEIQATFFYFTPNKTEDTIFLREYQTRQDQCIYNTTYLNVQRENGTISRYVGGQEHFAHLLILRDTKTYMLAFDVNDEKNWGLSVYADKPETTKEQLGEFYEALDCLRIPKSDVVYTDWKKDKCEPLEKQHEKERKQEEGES

Row | Sequence | Kd [1] | Kd [2] | Kd [3]
1 | CCTTCGTTGTCTGCCTTCGTAGCGGATCGAATTACGCGTTAACGGCAACCGATAACGGGACCGATTGCACACCCTTCAGAATTCGCACCA [85A B-TTP (114H)] | 0.7 µM | 2.2 µM | 
2 | CCTTCGTTGTCTGCCTTCGTNNNNNNNNNNNNNNNNNNNNNNNNNNNNNNNNNNNNNNNNNNNNNNNNNNACCCTTCAGAATTCGCACCA [Round 13 fibrinogen pool] |  |  | 5 µM
